Results taken from patent US20180318437A1 (Bayer, published 2018).

B1: TPP-6013 (antibody, human IgG1, kappa, V domains shown)
VH: QVQLQESGPGLVKPSQSLSLTCSVTDYSITSGYYWNWIRQFPGNKLEWMGYISYDGSNNYNPSLKNRISITRDTSKNQFFLKLSSVTTEDTATYYCSRGEGFYFDSWGQGTTLTVSS
VL: DIMMSQSPSSLAVSVGEKFTMTCKSSQSLFFGSTQKNYLAWYQQKPGQSPKLLIYWASTRESGVPDRFTGSGSGTDFTLAISSVMPEDLAVYYCQQYYNYPWTFGGGTKLEIKR
notes: Tested as unconjugated antibody; also called anti-CD123 AK1C; chimeric variant of 12F1
B2: TPP-5969 (antibody, human IgG1, kappa, V domains shown)
VH: QVQLVQSGAEVKKPGSSVKVSCKASGGTFSDYYMKWVRQAPGQGLEWMGDIIPSNGATFYAQKFQGRVTITADESTSTAYMELSSLRSEDTAVYYCARSHLLRASWFAYWGQGTLVTVSS
VL: DIVMTQSPDSLAVSLGERATINCESSQSLLNSGNQKNYLTWYQQKPGQPPKLLIYWASTRESGVPDRFSGSGSGTDFTLTISSLQAEDVAVYYCQNDYSYPYTFGQGTKLEIKR
notes: Humanized variant of 7G3 made by CDR grafting, human IgG1 kappa; Tested as unconjugated antibody; also called anti-CD123 AK1A; humanized variant of 7G3

What was measured:
[1] = target: T1, TPP-5521, recombinant antigen IL3Ra aa20-305 (IL3R3alpha/CD123) (murine (as printed under 'Origin' in …, UniProt P26951 20-305 (human entry))); test: SPR, Biacore T200, antibody captured by anti-human Fc, IL3Ra (TPP-5521) as analyte 1.56-200 nM, 25 C, 1:1 Langmuir fit
T1 construct: Bought protein; also called IL3Ra protein; extracellular domain of IL3Ra
T1 sequence: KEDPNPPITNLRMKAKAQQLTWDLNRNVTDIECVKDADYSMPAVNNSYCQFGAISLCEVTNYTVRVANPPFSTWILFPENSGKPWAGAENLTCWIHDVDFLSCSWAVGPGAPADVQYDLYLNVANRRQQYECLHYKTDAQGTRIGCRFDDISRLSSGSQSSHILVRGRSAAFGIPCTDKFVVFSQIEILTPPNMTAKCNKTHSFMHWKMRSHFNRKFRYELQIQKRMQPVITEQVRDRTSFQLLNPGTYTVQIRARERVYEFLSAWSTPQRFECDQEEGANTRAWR

[2] = target: T2, IL-3Ralpha, CD123, on CD123-positive human cancer cell lines (human, UniProt P26951 20-378); test: flow cytometry on MV-4-11 cells, titration from 10 ug/ml in 1:5 steps, anti-kappa-FITC secondary antibody; MV-4-11 cells
T2 construct: Target of the flow cytometry and internalisation assays; The cell line of each value is named under assay
T2 sequence: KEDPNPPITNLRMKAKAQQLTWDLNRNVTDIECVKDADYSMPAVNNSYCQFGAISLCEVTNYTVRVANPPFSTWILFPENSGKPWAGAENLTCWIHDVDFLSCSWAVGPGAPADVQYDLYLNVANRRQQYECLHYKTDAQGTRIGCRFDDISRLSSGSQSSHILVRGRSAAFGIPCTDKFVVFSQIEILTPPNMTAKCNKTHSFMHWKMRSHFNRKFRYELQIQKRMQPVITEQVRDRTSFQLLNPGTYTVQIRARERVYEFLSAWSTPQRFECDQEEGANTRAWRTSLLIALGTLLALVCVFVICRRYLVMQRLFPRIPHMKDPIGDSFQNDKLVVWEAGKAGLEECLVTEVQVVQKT

Row | koff [1] [s⁻¹] | kon [1] [M⁻¹ s⁻¹] | EC50 [2] [nM] | Binder
1 | 0.00019 | 300000 |  | B1
2 |  |  | 2.6 | B2
